# According to patent US20170165337A1 (IMMATICS BIOTECHNOLOGIES, published 2017):
# Molecular target: T1, HLA-A*02:01 (human)
# T1 construct: MHC class I monomer of the UV-ligand exchange assay; also called peptide-receptive MHC molecules; MHC class I
# Test: UV peptide-exchange ELISA
# Procedure, shortened: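 Peptide-MHC complexes formed by UV-mediated exchange of a UV-cleavable peptide for the test peptide; exchange yield quantified by β2m ELISA. Diluted 100-fold, captured on streptavidin-coated plates 1 h at 37 °C, detected with HRP anti-β2m and TMB at 450 nm against refolded HLA-A*02:01 monomer standards (15-500 ng/ml).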
row,peptide exchange yield [%],Binder
1,50 to 75,ILIDKTSFV
2,50 to 75,GLQSGVDIGV
3,50 to 75,WLVGQEFEL
4,20 to 50,ILGYMAHEHKV
5,50 to 75,ILEPLNPLL
6,≥ 75,HLMLHTAAL
7,50 to 75,ILFPLRFTL
8,20 to 50,VLIEDELEEL
9,50 to 75,VIADLGLIRV
10,≥ 75,ILVVIEPLL
11,50 to 75,ALAASALPALV
12,50 to 75,GQGEVLVYV
13,10 to 20,SLIKYFLFV
14,50 to 75,GLLRIIPYL
15,50 to 75,ALCDTLITV
16,50 to 75,ILFNTQINI
17,50 to 75,ILDLNTYNV
18,50 to 75,ILDEIGADVQA
19,50 to 75,ILDFGTFQL
20,50 to 75,ILNNEVFAI
21,20 to 50,HQIEAVDGEEL
22,50 to 75,HLYPGAVTI
23,50 to 75,ILIFHSVAL
24,50 to 75,GLPSFLTEV
25,20 to 50,LLFATQITL
26,20 to 50,GVMDVNTAL
27,50 to 75,GLQAKIQEA
